This assay addresses folate binding protein (FBP) (UniProt P15328). Description: cell-based or functional assay.
Chain of UniProt P15328 (P15328 25-234 limits assumed): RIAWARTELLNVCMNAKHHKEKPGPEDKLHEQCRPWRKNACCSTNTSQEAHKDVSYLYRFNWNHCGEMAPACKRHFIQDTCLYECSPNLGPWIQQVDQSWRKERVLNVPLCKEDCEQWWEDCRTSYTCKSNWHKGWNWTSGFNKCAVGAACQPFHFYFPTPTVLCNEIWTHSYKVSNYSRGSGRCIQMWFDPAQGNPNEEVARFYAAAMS

In the case of MOv-γ chimeric receptor, the IFN-γ secretion (pg/ml) of MOv-γ transduced mouse T cells in response to 24JK-FBP cells (parental 24JK: 0; non-transduced T cells: 0) turned out to be 5200 pg/mL, the IFN-γ secretion (pg/ml) of MOv-γ transduced mouse T cells in response to IGROV (ovarian FBP +) cells (non-transduced T cells: 0) worked out at 37500 pg/mL and the share of MOv-γ transduced human T cell clones (patient 410) reactive against the ovarian cancer target was 67 % of clones.

For the origin of these results see patent publication US7723111.
